“And” between values parts separate entries of the source, which are not always exact repeats. Equal entries are not always repeated.
Columns and labels:
[1] = substrate: CN1CC=C(c2ccc(F)cc2)CC1; assay: (§1) Michaelis-Menten constant was measured against monoamine oxidase B (MAO-B) from beef liver
[2] = substrate: Cc1ccc(C2=CCN(C)CC2)cc1; assay: as §1
[3] = substrate: CCc1ccc(C2=CCN(C)CC2)cc1; assay: as §1
[4] = substrate: CN1CC=C(c2ccc(Cl)cc2)CC1; assay: as §1
[5] = substrate: CN1CC=C(c2ccc(Br)cc2)CC1; assay: as §1
[6] = substrate: COc1ccc(C2=CCN(C)CC2)cc1; assay: Michaelis-Menten constant was measured against monoamine oxidase B (MAO-B) from beef liver; Inactive

B1: Amine oxidase [flavin-containing] B (Bos taurus) (protein)
chain: MSSKCDVVVVGGGISGMAAAKLLHDSGLNVIVLEARDRVGGRTYTLRNQKVKYVDLGGSYVGPTQNHILRLSKELGLETYKVNEVERLIHHTKGKSYPFRGSFPSVWNPITYLDHNNLWRTMDDMGREIPSDAPWKAPLAEQWDLMTMKELLDKICWTESSKQLAILFVNLCVTAEIHEVSALWFLWYVKQCGGTTRIFSTSNGGQERKFVGGSGQVSERIMDLLGDRVKLERPVIHIDQTGENVLVETLNHELYEAKYVISAVPPVLGMKIHFNPPLPMMRNQLITRVPLGSVIKSIVYYKEPFWRNMDYCGSMIIEGEEAPVAYALDDTKPDGSYPAIIGFILAHKARKLARLTKEERLKKLCDLYAKVLGSQEALHPVHYEEKNWCEEQYSGGCYTSYFPPGIMTQYGRVLRQPVGRIYFAGTETATHWSGYMEGAVEAGERAAREILHAMGKIPEDEIWLPEPESVDVPAKPITTTFLQRHLPSVPGLLKLIGLTTIFSATALGFLAHKRGLLVRI
- Km [1]: 220 µM
- kcat [1]: 1.55 s⁻¹
- Km [2]: 500 µM and 490 µM
- Km [3]: 1890 µM
- kcat [3]: 1.42 s⁻¹
- Km [4]: 180 µM and 200 µM
- Km [5]: 140 µM
- kcat [5]: 1.18 s⁻¹
- Km [6]: 940 µM
- kcat [6]: 1.13 s⁻¹

— ChEMBL document CHEMBL1129640, “Assessment of structural requirements for the monoamine oxidase-B-catalyzed oxidation of 1,4-disubstituted-1,2,3,6-tetrahydropyridine derivatives related to the neurotoxin 1-methyl-4-phenyl-1,2,3,6-tetrahydropyridine” (J Med Chem, 1996)
